Source: publication doi:10.1101/2021.09.02.458712

Biological target: GFP-LL5β (-ADA) (UniProt Q86SQ0)
Experiment: co-IP

UniProt Q86SQ0, sequence (Q86SQ0 whole entry): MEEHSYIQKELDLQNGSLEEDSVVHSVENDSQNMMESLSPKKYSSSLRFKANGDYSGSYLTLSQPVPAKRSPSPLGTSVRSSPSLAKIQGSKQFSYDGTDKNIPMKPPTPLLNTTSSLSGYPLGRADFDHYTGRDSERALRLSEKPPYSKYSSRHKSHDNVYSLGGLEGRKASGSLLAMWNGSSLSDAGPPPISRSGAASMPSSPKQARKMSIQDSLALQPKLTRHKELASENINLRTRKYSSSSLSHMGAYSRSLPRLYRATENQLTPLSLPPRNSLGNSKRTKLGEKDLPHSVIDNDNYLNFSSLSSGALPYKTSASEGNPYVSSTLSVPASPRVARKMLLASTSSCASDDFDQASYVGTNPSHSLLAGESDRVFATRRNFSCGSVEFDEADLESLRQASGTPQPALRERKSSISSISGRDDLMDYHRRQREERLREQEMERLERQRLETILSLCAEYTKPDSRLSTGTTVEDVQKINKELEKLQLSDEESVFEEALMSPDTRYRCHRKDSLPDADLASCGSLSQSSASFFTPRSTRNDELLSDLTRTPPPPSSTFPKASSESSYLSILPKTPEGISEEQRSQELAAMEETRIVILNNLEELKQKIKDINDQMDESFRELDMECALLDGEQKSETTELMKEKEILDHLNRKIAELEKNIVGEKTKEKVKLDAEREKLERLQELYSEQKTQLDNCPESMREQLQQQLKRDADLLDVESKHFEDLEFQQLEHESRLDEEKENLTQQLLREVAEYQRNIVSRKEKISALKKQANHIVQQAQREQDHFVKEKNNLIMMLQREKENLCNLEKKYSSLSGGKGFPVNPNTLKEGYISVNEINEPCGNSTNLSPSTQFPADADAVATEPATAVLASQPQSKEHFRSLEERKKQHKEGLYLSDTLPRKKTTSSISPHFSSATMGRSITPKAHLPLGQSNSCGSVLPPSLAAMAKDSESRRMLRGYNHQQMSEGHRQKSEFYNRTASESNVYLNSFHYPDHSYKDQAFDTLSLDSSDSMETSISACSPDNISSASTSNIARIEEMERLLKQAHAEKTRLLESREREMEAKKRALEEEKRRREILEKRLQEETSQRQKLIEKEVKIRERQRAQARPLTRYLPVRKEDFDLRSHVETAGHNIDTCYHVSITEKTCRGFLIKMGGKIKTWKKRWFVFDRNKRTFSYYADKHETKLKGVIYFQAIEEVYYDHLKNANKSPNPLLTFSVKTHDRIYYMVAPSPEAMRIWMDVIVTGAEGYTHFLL

B1: endogenous CLASP2 (natural protein)
chain: MAMGDDKSFDDEESVDGNRPSSAASAFKVPAPKTSGNPANSARKPGSAGGPKVGGASKEGGAGAVDEDDFIKAFTDVPSIQIYSSRELEETLNKIREILSDDKHDWDQRANALKKIRSLLVAGAAQYDCFFQHLRLLDGALKLSAKDLRSQVVREACITVAHLSTVLGNKFDHGAEAIVPTLFNLVPNSAKVMATSGCAAIRFIIRHTHVPRLIPLITSNCTSKSVPVRRRSFEFLDLLLQEWQTHSLERHAAVLVETIKKGIHDADAEARVEARKTYMGLRNHFPGEAETLYNSLEPSYQKSLQTYLKSSGSVASLPQSDRSSSSSQESLNRPFSSKWSTANPSTVAGRVSAGSSKASSLPGSLQRSRSDIDVNAAAGAKAHHAAGQSVRSGRLGAGALNAGSYASLEDTSDKLDGTASEDGRVRAKLSAPLAGMGNAKADSRGRSRTKMVSQSQPGSRSGSPGRVLTTTALSTVSSGVQRVLVNSASAQKRSKIPRSQGCSREASPSRLSVARSSRIPRPSVSQGCSREASRESSRDTSPVRSFQPLASRHHSRSTGALYAPEVYGASGPGYGISQSSRLSSSVSAMRVLNTGSDVEEAVADALKKPARRRYESYGMHSDDDANSDASSACSERSYSSRNGSIPTYMRQTEDVAEVLNRCASSNWSERKEGLLGLQNLLKNQRTLSRVELKRLCEIFTRMFADPHGKRVFSMFLETLVDFIQVHKDDLQDWLFVLLTQLLKKMGADLLGSVQAKVQKALDVTRESFPNDLQFNILMRFTVDQTQTPSLKVKVAILKYIETLAKQMDPGDFINSSETRLAVSRVITWTTEPKSSDVRKAAQSVLISLFELNTPEFTMLLGALPKTFQDGATKLLHNHLRNTGNGTQSSMGSPLTRPTPRSPANWSSPLTSPTNTSQNTLSPSAFDYDTENMNSEDIYSSLRGVTEAIQNFSFRSQEDMNEPLKRDSKKDDGDSMCGGPGMSDPRAGGDATDSSQTALDNKASLLHSMPTHSSPRSRDYNPYNYSDSISPFNKSALKEAMFDDDADQFPDDLSLDHSDLVAELLKELSNHNERVEERKIALYELMKLTQEESFSVWDEHFKTILLLLLETLGDKEPTIRALALKVLREILRHQPARFKNYAELTVMKTLEAHKDPHKEVVRSAEEAASVLATSISPEQCIKVLCPIIQTADYPINLAAIKMQTKVIERVSKETLNLLLPEIMPGLIQGYDNSESSVRKACVFCLVAVHAVIGDELKPHLSQLTGSKMKLLNLYIKRAQTGSGGADPTTDVSGQS
- fold decrease of association against GFP-LL5β: 2 fold
